Assay results published in patent US20250057951A1, “DISCERNIBLE CELL SURFACE PROTEIN VARIANTS OF CD117 FOR USE IN CELL THERAPY” (UNIVERSITÄT BASEL, priority 2021, published 2025).
Substitutions are numbered along the chain they refer to. Names and notes keep the numbering of the source. “Also recorded” adds a separate entry of the source.

Legend:
Refmab #1 = Refmab #1 titration on engineered TF-1 cells (flow cytometry); format: binding; conditions: 5-0.00015 μg/mL antibody; 4° C.
Experimental: Binding of Refmab #1 was assessed in a flow cytometry assay. TF-1 cells were seeded at a cell concentration of 1,000,000 cells/ml in FACS Buffer (PBS+2% FCS+1 mM EDTA). After a Fc blocking using 1:20 diluted TruStain (BioLegend, #422302) in FACS buffer for 15 minutes at 4° C., cells were washed twice with FACS buffer. Subsequently, a SR-1 titration was added to the cells using 5-0.00015 μg/mL antibody for 30 minutes at 4° C. on a plate shaker. Cells were washed twice with FACS buffer and a secondary labelled antibody (IgG (H+L) Cross-Adsorbed Goat anti-Human, Alexa Fluor® 488, Invitrogen, A11013) was added to the cells for 30 minutes at 4° C. on a plate shaker. Cells were washed twice with FACS buffer, before adding 1:100 diluted solution of 7AAD staining (cell viability) in FACS buffer for a couple of minutes and analyzing the cells using the Novocyte Quanteon (Agilent).

antibody Refmab #1 [1] = experiment: Octet titration, steady state KD of CD117 D1-2-3 variants to Refmab #1; format: binding; conditions: nm shift higher than 0.1 nm counts as binding
antibody Refmab #1, sequence (as listed by the source, one chain of several): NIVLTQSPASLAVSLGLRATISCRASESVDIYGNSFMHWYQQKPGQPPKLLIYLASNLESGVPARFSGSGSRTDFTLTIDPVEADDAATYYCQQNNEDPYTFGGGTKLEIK
Experimental: To further characterize binding of Refmab #1 to CD117 D1-2-3 variants E73K, E73L, E73R, E73Y, D121H, D121K, S123K and S123F, the analytes were titrated at 7 different concentrations (from 2000 nM to 5 nM). Antibody Refmab #1 was captured by AHC biosensors for 300 s at 0.5 to 1 μg/mL. Association and dissociation to Refmab #1 was extended to 600 s and 1000 s, respectively. Steady state analysis was performed.

TF-1 cells [2] = experiment: SCF-dependent phosphorylation of CD117 variants in TF-1 cells (Tyr719 ELISA); format: cell-based, human; conditions: 1-20 ng/ml SCF for 5 minutes
Experimental: TF-1 cells (wild type, knock out, and variants E73K, D121K and S123K of CD117) were seeded at a concentration of 1 million cells/ml in 2 ml of Medium (RPMI1640 supplemented with GlutaMAX+10% heat inactivated FBS) in a 6-well plate. Cells were treated with 1-20 ng/ml recombinant human SCF (1 mg/ml PeproGMP Recombinant Human SCF) for 5 minutes, before cell collection. Cells were washed with ice-cold PBS, before resuspending cells in 500 μL Lysis Buffer (Lysis buffer from Signaling containing Protease Inhibitor and Phosphatase Inhibitor). Cells were flash frozen in liquid nitrogen and thawed at 37° C. twice, before freezing them at −80° C. until further usage. Undiluted samples were thawed and processed according to the manufacturers protocol for the PathScan Phospho-c-Kit (Tyr719) Sandwich ELISA Kit (Cell Signaling). Absorbance (OD_450 nm) was assessed using the Envision (Perkin Elmer).

antibody Refmab #1 [3] = experiment: Octet screen: binding of CD117 D1-2-3 variants to captured Refmab #1; conditions: nm shift at end of association, top analyte concentration (500 nM)
Procedure, shortened: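 Refmab #1 captured on anti-human Fc biosensors; human CD117 D1-2-3 wt or variants flowed as analyte at 500, 50 and 5 nM, 25° C., 300 s association/900 s dissociation, buffer-referenced. Binding level at top concentration, end of association, expressed as percent of wild type; 1:1 fits where possible.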

TF-1 cells [4] = experiment: SCF-dependent proliferation, SCF titration on TF-1 cells with CD117 variants (CellTiter-Glo); format: cell-based, human
Experimental: In another experiment, SCF-dependent proliferation of variants E73K, E73Y, D121K, S123F and S123K was compared against wildtype CD117. TF-1 cells were seeded at a cell concentration of 150 000 cells/ml in sterile, white cell culture treated plates with transparent bottom in RPMI+GlutaMax+10% FCS. Cells were treated with a titration of SCF. After 3 days of incubation a CellTiter-Glo 2.0 assay (Promega) was performed, luminescence was read in a luminometer (Envision plate reader) and EC50's was determined. Two different experiments with triplicates in each experiment were performed.

Refmab #2 = experiment: Octet: binding of CD117 variants to Refmab #2; conditions: qualitative Octet analysis
Experimental: A more sophisticated analysis of binding to the elected variants was performed with antibody Refmab #1. Binding of Refmab #1 to wt and variants (analyte) was measured in an Octet system RED96e or R8 at 25° C. with shaking at 1,000 rpm using 1× kinetic buffer (Sartorius, PN: 18-1105). First, the elected variants were screened for their ability to bind Refmab #1 using three different concentrations of analytes. Antibody Refmab #1 was captured by Anti-Human Fc capture biosensor (AHC) (Sartorius, PN: 18-5060) for 300 s at 0.5 to 1 μg/mL. As an analyte, human CD117 wt and variants, containing only domains 1, 2 and 3 (CD117 D1-2-3), was titrated at 500 nM, 50 nM and 5 nM. Association and dissociation of the analyte to Refmab #1 was monitored for 300 s and 900 s, respectively. Reference subtraction was performed against buffer only wells. AHC tips were regenerated using 10 mM Gly-HCl pH 1.7. Data were analyzed using the Octet Data Analysis software HT 12.0. Data were fitted (when possible) to a 1:1 binding model. Kinetic rates ka and […] globally fitted. Binding level of the elected variants were compared to wild type and are shown as percent in FIG. 7. For this qualitative analysis, the binding level of the top analyte concentration at end of the association step was used.
A similar experiment to that in Example 7 was performed, but utilizing Refmab's #2 and #3.

Biotinylated Avitag-hSCF = target: T1, Biotinylated Avitag-hSCF (human, UniProt P21583 26-190, limits assumed, biotinylated Avitag); experiment: BLI (Octet), steady state: biotinylated SCF on streptavidin biosensor, CD117 D1-2-3 variant as analyte; KD relative to WT
T1 construct: Bought reagent; also called hSCF (Acros Biosystems SCF-H82E1)
T1 sequence (P21583 26-190 limits assumed): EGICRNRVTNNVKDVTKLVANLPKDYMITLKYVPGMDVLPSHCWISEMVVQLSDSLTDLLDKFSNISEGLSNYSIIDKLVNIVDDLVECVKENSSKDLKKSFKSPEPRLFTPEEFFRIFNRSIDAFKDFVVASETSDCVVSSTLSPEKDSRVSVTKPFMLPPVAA
Experimental: Association was monitored for 300 s and dissociation for 600 s. […] Reference subtraction was performed against buffer only wells. Biosensors were not regenerated and a new set of SA biosensors was used for each analyte. Data were analyzed using the Octet Data Analysis software HT 12.0. Steady state data analysis was performed due to the fast on/off nature of the interaction.

variants of CD117 = experiment: Blocking of SCF-induced CD117 phosphorylation (Tyr719 ELISA), TF-1 cells with CD117 variants; format: cell-based, human; conditions: 0.5 μg/ml antibody 30 minutes; 100 ng/ml SCF 5 minutes; same for E73K, E73Y, S123F (data not shown)
Experimental: (§1) SCF-dependent phosphorylation is another function of CD117. SCF-dependent phosphorylation was measured using TF-1 cells expressing CD117 (as shown in previous experiments). TF-1 cells were seeded at a concentration of 1 million cells/ml in 1 ml of Medium (RPMI1640 supplemented with GlutaMAX+10% heat inactivated FBS) in a 6-well plate. Cells were treated with 0.5 ug/mL antibody or 500 nM avapratinib. Cells were then treated with 100 ng/ml recombinant human SCF (1 mg/ml PeproGMP® Recombinant Human SCF) for 5 minutes, before cell collection. Cells were washed with ice-cold PBS, before resuspending cells in 250 μL Lysis Buffer (Lysis buffer from Signaling containing Protease Inhibitor and Phosphatase Inhibitor). Cells were flash frozen in liquid nitrogen and thawed at 37° C. twice, before freezing them at −80° C. until further usage. Undiluted samples were thawed and processed according to the manufacturers protocol for the PathScan® Phospho-c-Kit (Tyr719) Sandwich ELISA Kit (Cell Signaling). Absorbance (OD_450 nm) was assessed using the Envision (Perkin Elmer).
(§2) TF-1 cells (wild type, and variants E73K, E73Y, D121K, S123F and S123K of CD117) were seeded at a concentration of 1 million cells/mL in 2 ml of Medium (RPMI1640 supplemented with GlutaMAX+10% heat inactivated FBS) in a 6-well plate. Cells were pre-treated with 0.5 μg/ml of antibodies Refmab #1-Ernie or Refmab #1-Bert for 30 minutes, before adding 100 ng/ml recombinant human SCF (1 mg/mL PeproGMP® Recombinant Human SCF) for 5 minutes. Cells were collected, washed once with ice-cold PBS and resuspended in 500 μL Lysis Buffer (Lysis buffer from Signaling containing Protease Inhibitor and Phosphatase Inhibitor). Cells were then flash frozen in liquid nitrogen and thawed at 37° C. twice, before freezing them at −80° C. until further usage. Undiluted samples were thawed and processed according to the manufacturers protocol for the PathScan Phospho-c-Kit (Tyr719) Sandwich ELISA Kit (Cell Signaling) or the Human c-Kit (CD117) ELISA Kit (Abcam). Absorbance (OD_450 nm) was assessed using the Envision (Perkin Elmer).

CD117 = experiment: Blocking of SCF-induced CD117 phosphorylation (Tyr719 ELISA), wild type TF-1 cells; format: cell-based, human; conditions: 0.5 ug/mL antibody or 500 nM avapritinib; 100 ng/ml SCF 5 minutes
Experimental: as §1, §2

SCF = target: T2, SCF (Homo sapiens, UniProt P21583); experiment: Octet: binding of CD117 D1-2-3 variants to SCF; conditions: CD117 D1-2-3 constructs; steady state
T2 construct: purchased Acros Biosystems SCF-H82E1
T2 sequence (P21583 26-273): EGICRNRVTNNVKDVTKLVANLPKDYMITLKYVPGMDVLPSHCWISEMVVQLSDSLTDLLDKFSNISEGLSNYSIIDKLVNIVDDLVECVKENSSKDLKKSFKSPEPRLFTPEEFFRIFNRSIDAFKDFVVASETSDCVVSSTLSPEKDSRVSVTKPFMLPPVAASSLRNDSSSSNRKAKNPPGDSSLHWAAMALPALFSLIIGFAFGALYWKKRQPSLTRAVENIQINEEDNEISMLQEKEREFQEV
Experimental: SCF binding is one function of CD117. SCF binding is important for the transmission of functional signals by CD117. Binding of the elected variants to SCF was measured on an Octet system RED96e or R8 at 25° C. with shaking at 1000 rpm using 1× Kinetic Buffer (Sartorius, PN: 18-1105). […] Domain 1, 2, 3 comprise the binding site for SCF. Domains 4 and 5 were used as a negative, non-binding control.
CD117 D1-2-3 wt and variants thereof are titrated with different concentrations from 1000 to 5 nM. Association was monitored for 300 s and dissociation for 600 s. Binding to human CD117 domain 4 and 5 (CD117 D4-5) was performed under the same conditions as non-binding control. Reference subtraction was performed against buffer only wells. Biosensors were not regenerated and a new set of SA biosensors was used for each analyte. Data were analyzed using the Octet Data Analysis software HT 12.0. Steady state data analysis was performed due to the fast on/off nature of the interaction.

[5] = titration of SCF, 3 days, TF-1 cells with the CD117 variant

Refmab #1, sequence (as listed by the source, one chain of several): as the sequence (as listed by the source, one chain of several) above

D121K: variant of human CD117 with substitution D121K
Binding of Refmab #1 to TF-1 cells expressing the CD117 variant (Refmab #1): completely abolished | binding of Refmab #1 at 2000 nM variant (antibody Refmab #1 [1]): No binding | SCF-dependent phosphorylation at position Tyr719 of CD117 (TF-1 cells [2]): showed a SCF-dependent phosphorylation | binding to Refmab #1 compared to wild type (antibody Refmab #1 [3]): particular strong decrease in binding | EC50 Average (TF-1 cells [4]; average of two experiments): 3.70 ± 0.45 ng/mL | EC50 Experiment #1 (TF-1 cells [4]; [5]): 4.15 ng/mL | EC50 Experiment #2 (TF-1 cells [4]; [5]): 3.25 ng/mL

B1: R122H (receptor)
extracellular domains 1, 2 and 3: QPSVSPGEPSPPSIHPGKSDLIVRVGDEIRLLCTDPGFVKWTFEILDETNENKQNEWITEKAEATNTGKYTCTNKHGLSNSIYVFVRDPAKLFLVDHSLYGKEDNDTLVRCPLTDPEVTNYSLKGCQGKPLPKDLRFIPDPKAGIMIKSVKRAYHRLCLHCSVDQEGKSVLSEKFILKVRPAFKAVPVVSVSKASYLLREGEEFTVTCTIKDVSSSVYSTWKRENSQTKLQEKYNSWHHGDFNYERQATLTISSARVNDSGVFMCYANNTFGSANVTTTLEVVD
notes: not in the list MOLECULES; also called human CD117 D1-2-3 variant R122H
binding to Refmab #2 compared to wild type CD117 (Refmab #2): strong decrease in binding | binding to Refmab #1 compared to wild type (antibody Refmab #1 [3]): particular strong decrease in binding | binding result (Biotinylated Avitag-hSCF): binds

B2: Refmab #1-Ernie: improved version of Refmab #1, VH SEQ ID 15, VL SEQ ID 62 (antibody, V domains shown)
VH: QVQLQQPGAELVKPGASVKMSCKASGYTFTSYNMHWVKQTPGQGLEWIGVIYSGNGDTSYNQKFKGKATLTADKSSSTAYMQINSLTSEDSAVYYCARERDTRFGNWGQGTLVTVSA
VL: EIVLTQSPSSLSASVGDRVTITCRASESVDIYGESFMHWYQQKPGKAPKLLIYLASNLESGVPSRFSGSGSGTDFTLTISSLQPEDFATYYCQQNNEEPYTFGQGTKLEIKRTV
modifications: Refmab #1 VH
blocking of SCF-dependent CD117 phosphorylation, D121K and S123K variants (variants of CD117): unaffected | blocking of SCF-induced phosphorylation, wild type cells (CD117): blocked

B3: S239H: variant of human CD117 with substitution S239H (protein)
chain: QPSVSPGEPSPPSIHPGKSDLIVRVGDEIRLLCTDPGFVKWTFEILDETNENKQNEWITEKAEATNTGKYTCTNKHGLSNSIYVFVRDPAKLFLVDRSLYGKEDNDTLVRCPLTDPEVTNYSLKGCQGKPLPKDLRFIPDPKAGIMIKSVKRAYHRLCLHCSVDQEGKSVLSEKFILKVRPAFKAVPVVSVSKASYLLREGEEFTVTCTIKDVHSSVYSTWKRENSQTKLQEKYNSWHHGDFNYERQATLTISSARVNDSGVFMCYANNTFGSANVTTTLEVVDKG
binding to Refmab #2 compared to wild type CD117 (Refmab #2): strong decrease in binding | KD increase of SCF binding compared to wild type CD117 (SCF): less than three-fold; also recorded: less than four-fold

B4: S239K: variant of human CD117 with substitution S239K (protein)
chain: B3 chain with H214K
binding to Refmab #2 compared to wild type CD117 (Refmab #2): strong decrease in binding
